The target in test [1] is T1, Extracellular domain (ECD) of the canine IL-4 receptor alpha-AviTag-His Tag (canine).
T1 construct: expressed in CHO cells; also called canine IL-4RA; canine IL4Ra
T1 chain: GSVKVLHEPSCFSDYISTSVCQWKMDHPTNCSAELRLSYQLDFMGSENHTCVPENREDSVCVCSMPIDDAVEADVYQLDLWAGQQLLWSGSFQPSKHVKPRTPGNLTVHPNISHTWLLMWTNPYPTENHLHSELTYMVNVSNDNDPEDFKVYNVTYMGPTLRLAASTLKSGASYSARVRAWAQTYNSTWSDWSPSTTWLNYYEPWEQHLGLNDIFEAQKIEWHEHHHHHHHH
The test is described as follows: SPR, IgG captured via anti-dog H+L.

Test [2] has as its target canine IL-4RA (construct not given) (canine). The test is described as follows: SPR, combinatorial Fab-SASA clone.
Test [3] addresses T2, Extracellular domain (ECD) of the canine IL-4 receptor alpha-V5 epitope-AviTag-His Tag (canine).
T2 construct: monomeric form isolated by size exclusion; also called canine IL-4RA-V5-Avi-His; canine IL-4RA
T2 chain: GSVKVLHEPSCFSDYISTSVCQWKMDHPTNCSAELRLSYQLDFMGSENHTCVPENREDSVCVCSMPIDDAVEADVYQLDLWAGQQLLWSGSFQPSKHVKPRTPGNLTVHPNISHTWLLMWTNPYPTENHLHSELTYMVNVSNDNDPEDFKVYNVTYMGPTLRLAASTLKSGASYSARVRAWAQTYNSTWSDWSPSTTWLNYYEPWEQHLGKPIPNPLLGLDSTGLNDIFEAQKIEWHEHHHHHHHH
The test is described as follows: SPR, Fab-SASA captured on BSA.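 Also: biacore T200 SPR, Fab-SASA variants from E. coli conditioned medium captured on BSA-coated CM5 chip, canine IL-4RA injected 120 s then 420 s dissociation, 1:1 model fit.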 In general terms: Surface plasmon resonance follows binding to a sensor surface in real time, without labels.

Test [4] concerns the target T1, Extracellular domain (ECD) of the …. The test is described as follows: SPR, IgG captured via anti-dog Fc.
Test [5] concerns the target canine IL-4RA on canine DH82 cells (canine). The test is described as follows: cell-based or functional assay.
Test [6] has the same target. The test is described as follows: cell-based or functional assay. The source holds these as a separate data set.
The target in test [7] is T1, Extracellular domain (ECD) of the …. The test is described as follows: SPR, IgG captured via anti-dog Fc.
The target is the same in test [8]. The test is described as follows: SPR, IgG captured via anti-dog Fc.
The target is the same in test [9]. The test is described as follows: SPR, IgG captured via anti-dog H+L.
The target of test [10] is T2, Extracellular domain (ECD) of the …. The test is described as follows: SPR, antibody captured via anti-human Fc.

Positions count from the first letter of the chain named. Several values for one entry are separate records, joined by “and”; a condition that tells them apart may be missing. Identical values can stand only once.

As usually defined, the Kd is a measure of binding affinity in units of concentration. A word on the koff: it is the rate constant with which the complex falls apart. The term kon denotes the rate constant with which the complex forms.

B1: TB640_275 (antibody, V domains shown)
VH: EVQLVESGGDLVKPGGSLRLSCVASGFTFRDYAMDWVRQAPGKGLQWLSLISGSGGKTYYADAVKGRFTISRDNAKNTLYLQMNSLRAEDTAVYYCAVDRLTKTIRPQYYGLWVWGQGTLVTVSS
VL: DIVMTQTPLSLSVSPGETASISCRSSQSLLYSIGYNYLDWYMQKPGQSPQGLIYLGSKRASGVSDRFSGSGSGADFTLKISRVEADDAGVYYCMQGLQSPLTFGQGTKLEIKR
notes: also called TB640_275-H + TB640_275-L
As for B1, in [1], the Kd was found to be 1.71 nM, the koff worked out at 0.000487 s⁻¹ and the kon worked out at 287000 M⁻¹ s⁻¹.

B2: TB640_005 Fab-SASA wild type (Fab, V domains shown)
VH: B1 VH with D35T, L48V
VL: B1 VL with M42L, S64P, A74T, K79R, D86N, A88T
notes: secreted from E. coli, tested in conditioned medium; also called WT; not shown: SASA tag then His-tag
Turning to B2, in test [2], the Kd worked out at 6.07 nM, the koff was found to be 0.00116 s⁻¹ and the kon amounted to 191000 M⁻¹ s⁻¹. Moreover, in test [3], the Kd was 13 nM and 13.3 nM and 13.2 nM; the “Ratio WT-kd/clone-kd” value came out at 1; the koff is 0.000952 s⁻¹ and 0.000953 s⁻¹; the kon is 73100 M⁻¹ s⁻¹ and 71700 M⁻¹ s⁻¹ and 72400 M⁻¹ s⁻¹.

B3: GFmix_PTH-H + GFmix_THS-L (antibody, V domains shown)
VH: B1 VH with T28P, D35T, V114H
VL: B1 VL with L30T, Q98H, T102G
In test [4], B3 registered a Kd of 0.171 nM, a koff of 7.78e-05 s⁻¹ and a kon of 458000 M⁻¹ s⁻¹. In addition, the “IC50: % inhibition of STAT6 phosphorylation (AlphaLISA pSTAT6) in canine DH82 cells stimulated with 20 ng/mL canine IL-4” value (“IC50: % inhibition … with 20 ng/mL canine IL-4” below) in [5] was 1.03 nM. Besides, the “IC50: % inhibition of STAT6 phosphorylation (AlphaLISA pSTAT6) in canine DH82 cells stimulated with 50 ng/mL canine IL-13” value in test [6] stood at 0.21 nM.

B4: 21188-H + 21188-L (antibody, V domains shown)
VH: B1 VH with D35T, V114H
VL: B1 VL with L30T, T102G
On to B4, for which the Kd in test [4] was 0.243 nM; in test [7], 0.4 nM; in test [8], 0.18 nM. The values for the koff in test [4], in test [7] and in test [8] were 9.93e-05 s⁻¹, 9.85e-05 s⁻¹ and 5.96e-05 s⁻¹, respectively. For the same molecule, the kon in test [4] worked out at 410000 M⁻¹ s⁻¹; in [7], 246000 M⁻¹ s⁻¹; in [8], 332000 M⁻¹ s⁻¹. For the same molecule, the “IC50: % inhibition … with 20 ng/mL canine IL-4” value in [5] was 2.17 nM.

B5: GFmix_PTH-H + GFmix3_KTHS-L (antibody, V domains shown)
VH: B1 VH with T28P, D35T, V114H
VL: B1 VL with Q27K, L30T, Q98H, T102S
For the molecule B5, in [4], the Kd was 0.17 nM, the koff is 7.58e-05 s⁻¹ and the kon was 447000 M⁻¹ s⁻¹. Also, the “IC50: % inhibition … with 20 ng/mL canine IL-4” value in [5] is 0.6 nM.

B6: TB640_005 (antibody, V domains shown)
VH: B1 VH with D35T, L48V
VL: B1 VL with M42L, S64P, A74T, K79R, D86N, A88T
notes: caninized IgG; also called TB640_005-H + TB640_005-L
Take B6: in [4], the Kd is 2.29 nM, the koff was found to be 0.000486 s⁻¹ and the kon was 212000 M⁻¹ s⁻¹. In test [9], this molecule showed a Kd of 2.72 nM, a koff of 0.000484 s⁻¹ and a kon of 180000 M⁻¹ s⁻¹.

B7: Dupilumab (dupilumab VH with human IgG1 constant region, dupilumab kappa light chain) (antibody, V domains shown)
VH: EVQLVESGGGLEQPGGSLRLSCAGSGFTFRDYAMTWVRQAPGKGLEWVSSISGSGGNTYYADSVKGRFTISRDNSKNTLYLQMNSLRAEDTAVYYCAKDRLSITIRPRYYGLDVWGQGTTVTVSS
VL: DIVMTQSPLSLPVTPGEPASISCRSSQSLLYSIGYNYLDWYLQKSGQSPQLLIYLGSNRASGVPDRFSGSGSGTDFTLKISRVEAEDVGFYYCMQALQTPYTFGQGTKLEIKR
notes: human IgG1 instead of the IgG4 of the drug
As to B7, in [10], the Kd was found to be 130 nM, the koff worked out at 0.143 s⁻¹ and the on-rate constant (kon) is 1.09e+06 M⁻¹ s⁻¹.

These data come from patent US20250188176A1 (INVETX, published 2025).
